Here are results for 4 molecules from publication PMC11341764, “Sae2 controls Mre11 endo- and exonuclease activities by different mechanisms” (Nature Communications, 2024).

T1: Rad50-C47 (Saccharomyces cerevisiae, UniProt P12753 1-1312, K1299R)
T1 sequence: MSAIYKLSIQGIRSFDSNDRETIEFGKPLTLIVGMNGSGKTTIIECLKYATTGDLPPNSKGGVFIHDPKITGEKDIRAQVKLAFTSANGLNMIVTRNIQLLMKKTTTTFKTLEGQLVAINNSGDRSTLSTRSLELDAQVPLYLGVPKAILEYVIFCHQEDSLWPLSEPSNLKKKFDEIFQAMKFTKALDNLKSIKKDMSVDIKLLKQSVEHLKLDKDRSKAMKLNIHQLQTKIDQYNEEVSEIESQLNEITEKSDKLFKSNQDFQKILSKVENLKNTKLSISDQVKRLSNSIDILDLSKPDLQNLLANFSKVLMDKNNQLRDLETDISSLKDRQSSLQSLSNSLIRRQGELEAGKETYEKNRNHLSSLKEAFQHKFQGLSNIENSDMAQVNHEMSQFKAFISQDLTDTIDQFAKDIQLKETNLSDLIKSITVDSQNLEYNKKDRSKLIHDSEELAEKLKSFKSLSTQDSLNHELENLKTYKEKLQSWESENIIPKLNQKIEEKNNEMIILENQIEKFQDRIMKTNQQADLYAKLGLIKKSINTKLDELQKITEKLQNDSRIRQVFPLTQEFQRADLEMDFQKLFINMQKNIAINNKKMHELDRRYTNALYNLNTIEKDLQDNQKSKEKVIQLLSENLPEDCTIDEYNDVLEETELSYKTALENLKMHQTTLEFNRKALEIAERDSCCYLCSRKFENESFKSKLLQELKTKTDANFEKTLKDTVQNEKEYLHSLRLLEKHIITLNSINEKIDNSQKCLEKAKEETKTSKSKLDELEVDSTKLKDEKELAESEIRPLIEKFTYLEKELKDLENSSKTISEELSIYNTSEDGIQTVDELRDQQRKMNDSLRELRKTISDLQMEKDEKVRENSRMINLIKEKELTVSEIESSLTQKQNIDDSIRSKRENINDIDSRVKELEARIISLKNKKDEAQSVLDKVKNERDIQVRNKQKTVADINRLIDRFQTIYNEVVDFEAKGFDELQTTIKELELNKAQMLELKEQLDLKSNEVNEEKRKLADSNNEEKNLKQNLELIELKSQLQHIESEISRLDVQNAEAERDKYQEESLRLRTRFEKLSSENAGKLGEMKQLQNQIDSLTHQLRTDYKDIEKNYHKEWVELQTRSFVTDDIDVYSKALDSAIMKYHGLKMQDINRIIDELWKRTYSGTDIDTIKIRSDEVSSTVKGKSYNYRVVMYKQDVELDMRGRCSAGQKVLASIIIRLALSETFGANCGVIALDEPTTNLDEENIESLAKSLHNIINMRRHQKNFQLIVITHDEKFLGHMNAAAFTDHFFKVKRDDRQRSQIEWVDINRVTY

B1: 70 bp dsDNA (PC210/PC211) (dsDNA)
DNA 1: GTAAGTGCCGCGGTGCGGGTGCCAGGGCGTGCCCTTGGGCTCCCCGGGCGCGTACTCCACCTCATGCATC
DNA 2: GATGCATGAGGTGGAGTACGCGCCCGGGGAGCCCAAGGGCACGCCCTGGCACCCGCACCGCGGCACTTAC
modifications: biotinylated dT in the oligonucleotides (Table S1; positions marked by bold underline, lost in the text)
B2: phosphorylated MBP-Sae2 (natural protein, yeast, UniProt P46946 1-345, looked up)
chain: MVTGEENVYLKSSLSILKELSLDELLNVQYDVTTLIAKRVQALQNRNKCVLEEPNSKLAEILCHEKNAPQQSSQTSAGPGEQDSEDFILTQFDEDIKKESAEVHYRNENKHTVQLPLVTMPPNRHKRKISEFSSPLNGLNNLSDLEDCSDTVIHEKDNDKENKTRKLLGIELENPESTSPNLYKNVKDNFLFDFNTNPLTKRAWILEDFRPNEDIAPVKRGRRKLERFYAQVGKPEDSKHRSLSVVIESQNSDYEFAFDNLRNRSKSPPGFGRLDFPSTQEGNEDKKKSQEIIRRKTKYRFLMASNNKIPPYEREYVFKREQLNQIVDDGCFFWSDKLLQIYARC
modifications: phosphorylated (expressed in the presence of phosphatases inhibitors); sites not stated
notes: Sae2, yeast, from the pFB-MBP-Sae2-His vector expressing MBP and His-tagged Sae2; also called MBP-pSae2; source: Sf9, from extracts, held on amylose resin and washed
B3: Rad50-FLAG (wild-type) (natural protein, yeast, UniProt P12753 1-1312, looked up)
chain: T1 sequence with R1299K
notes: Rad50, yeast, expressed from the pFB-RAD50-FLAG vector; Dimeric by mass photometry; also called Rad50-WT; wild-type Rad50 protein

Substitutions are numbered along the chain they refer to.

The target of one data set is Rad50-C47-FLAG (yeast) (UniProt P12753). Kind of data set: mass photometry; Rad50 variants alone; molecular weight estimated.
The target of another data set is T1, Rad50-C47. Kind of data set: EMSA; 1 mM ATP-gamma-S, 5 mM Mg2+; comparable to WT; 25 mM Tris-acetate pH 7.5, 5 mM Mg chloride, 1 mM DTT, 0.25 ug/ul BSA, 1 mM ATP-gamma-S, 1 nM DNA, 15 min at 30 C; 6% PAGE in TAE on ice. To be noted: protein: recombinant; tags: FLAG; chain copies: 2; label: PC210 3' 32P-dC added by TdT; blunt apart from the 3' TdT-added labeled dC on PC210. A general note: A gel shift assay detects complexes by their altered migration in electrophoresis.

The target in the data set “Rad50-FLAG (wild-type)” is B3. Kind of data set: pull-down; MBP-pSae2 (bait) from Sf9 extracts immobilised on amylose resin and washed, incubated 1 h at 4 °C with 2.5 μg purified Rad50-FLAG variants (prey); 50 mM Tris-HCl pH 7.5, 2 mM EDTA, 80 mM NaCl, 0.2% NP40; eluted with 20 mM maltose; anti-FLAG blot. The settings on record: both partners purified.
Data set [1] concerns the molecule itself. Description: mass photometry; Rad50 variants alone; molecular weight estimated.

The stoichiometry N is a count of units in the complex or per binding partner. In the case of “Rad50-C47-FLAG (from UniProt P12753 1-1312) (natural protein)”, the stoichiometry N in the data set with Rad50-C47-FLAG (yeast) was 2. Consider B1, for which, in the data set with Rad50-C47, the binding result was “binds”. On to B2, for which the binding result with Rad50-FLAG (wild-type) is “binds”. For the molecule B3, the “stoichiometry N” value in data set [1] is 2.
